# From patent publication US20090297439A1 (METHERESIS TRANSLATIONAL RESEARCH, published 2009)
# B1: murine IgG2a MAb DN30 (antibody, V domains shown)
# VH: QVQLQQPGTELVKPGASVKLSCKASGYTFTSYWIHWVKQRPGQGLEWIGEINPSSGRTNYNEKFKNKVTVTVDKSSTTAYMQLSNLTSEDSAVYYCASRGYWGQGTTLTVSS
# VL: DIVLTQSPASLAVSLGQRATISCKASQSVDYDGGSYMSWFQQRPGQPPKLLISAASNLESGIPARFSGSGSGTDFTLNIHPVEEEDVATYYCQQSYEDPLTFGAGTKLELKR
# notes: Murine IgG2a, intact MAb; also called anti-Met monoclonal antibody produced by the hybridoma cell line ICLC PD 05006
# Target: T1, Met (UniProt P08581 25-932, limits assumed)
# T1 construct: Met as the partner of the printed Kd; The assay and the construct are not described; also called HGFR; hepatocyte growth factor receptor
# Test: not stated (given as a property of the antibody in Material and Methods)
# T1 sequence (P08581 25-932 limits assumed): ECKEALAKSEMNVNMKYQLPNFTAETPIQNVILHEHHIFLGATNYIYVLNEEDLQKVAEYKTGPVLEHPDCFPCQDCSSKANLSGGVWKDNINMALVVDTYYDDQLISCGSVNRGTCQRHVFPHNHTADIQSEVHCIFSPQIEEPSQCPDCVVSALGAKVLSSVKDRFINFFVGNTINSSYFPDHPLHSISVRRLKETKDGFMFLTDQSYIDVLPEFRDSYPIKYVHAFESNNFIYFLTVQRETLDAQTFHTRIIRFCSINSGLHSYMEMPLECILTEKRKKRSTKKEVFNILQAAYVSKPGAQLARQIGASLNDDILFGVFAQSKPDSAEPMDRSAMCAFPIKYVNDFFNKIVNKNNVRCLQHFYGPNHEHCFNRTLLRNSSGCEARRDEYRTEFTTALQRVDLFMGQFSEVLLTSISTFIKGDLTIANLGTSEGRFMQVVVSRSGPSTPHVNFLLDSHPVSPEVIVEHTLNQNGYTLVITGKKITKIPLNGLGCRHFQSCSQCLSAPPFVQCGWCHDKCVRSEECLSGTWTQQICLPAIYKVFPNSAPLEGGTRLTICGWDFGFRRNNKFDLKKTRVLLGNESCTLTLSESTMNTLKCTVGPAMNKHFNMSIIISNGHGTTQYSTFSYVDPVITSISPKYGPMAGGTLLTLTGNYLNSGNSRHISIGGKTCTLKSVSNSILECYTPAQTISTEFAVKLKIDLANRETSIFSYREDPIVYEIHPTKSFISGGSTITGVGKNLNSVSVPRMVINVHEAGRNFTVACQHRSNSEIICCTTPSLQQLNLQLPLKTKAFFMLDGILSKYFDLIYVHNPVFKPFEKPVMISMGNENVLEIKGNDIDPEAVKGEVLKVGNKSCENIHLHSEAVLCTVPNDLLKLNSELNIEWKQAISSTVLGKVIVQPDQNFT
binder,measurement,value
B1,Kd,2.64 nM
